Where no end group is shown, it is not given here. [ ]: non-standard residue; d: D form. pS = N[C@@H](COP(=O)(O)O)C(=O)O
Target: T1, recombinant SUFU (UniProt Q9UMX1 1-484)
T1 sequence (looked up): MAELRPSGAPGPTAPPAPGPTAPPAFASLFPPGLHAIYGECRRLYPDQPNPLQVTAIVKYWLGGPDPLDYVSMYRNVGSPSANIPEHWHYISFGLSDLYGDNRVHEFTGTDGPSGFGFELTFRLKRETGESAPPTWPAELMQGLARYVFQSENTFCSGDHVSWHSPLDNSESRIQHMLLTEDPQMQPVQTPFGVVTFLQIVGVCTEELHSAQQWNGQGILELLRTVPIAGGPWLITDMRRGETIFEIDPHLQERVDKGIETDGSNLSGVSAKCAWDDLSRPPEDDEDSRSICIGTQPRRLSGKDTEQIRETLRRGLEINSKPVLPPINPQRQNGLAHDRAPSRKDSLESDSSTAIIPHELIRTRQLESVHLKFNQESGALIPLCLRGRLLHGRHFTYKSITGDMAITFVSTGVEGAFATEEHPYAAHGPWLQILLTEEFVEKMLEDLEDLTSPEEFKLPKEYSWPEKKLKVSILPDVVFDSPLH
Assay: SPR

**Q.** How did the Kd turn out when MIRT[pS]PNSLVTILNNSRSSSSASGSYGHLSASAISPA (peptide, UniProt P10071 309-345, looked up) [phosphorylated GLI3 peptide (phospho-GLI3^S313_(309–345))] was run?
**A.** The Kd was 5.08 µM.

Reference: article PMC11252808 (Proceedings of the National Academy of Sciences of the …, 2024)
